# From patent US8013137B2, “Modified enteropeptidase protein” (National University Corporation Hokkaido University, priority 2006, dated 2011)
# Where a chain is given by its changes, count along the chain named. Names and notes keep the numbering of the source.
# B1: Bovine (Neb): bovine EP protease available from NEB (protein)
# chain: IVGGSDSREGAWPWVVALYFDDQQVCGASLVSRDWLVSAAHCVYGRNMEPSKWKAVLGLHMASNLTSPQIETRLIDQIVINPHYNKRRKNNDIAMMHLEMKVNYTDYIQPICLPEENQVFPPGRICSIAGWGALIYQGSTADVLQEADVPLLSNEKCQQQMPEYNITENMVCAGYEAGGVDSCQGDSGGPLMCQENNRWLLAGVTSFGYQCALPNRPGVYARVPRFTEWIQSFLH
# B2: Bovine (Nvg): bovine EP protease available from Novagen (protein)
# chain: B1 chain
# B3: EP-2: recombinant serine protease domain of Medaka enteropeptidase-2 (AB272105) (protein)
# chain: MKRRLTNLEVLLTVTTSLFAVCCVCLIVVSCIGLKPEGAAEPVQLIGQMVITAGAAFSEELRNSSSHLFKSLAFDVQQLVSDAFGASELRLLYRSFRVLYFRPGSIAVTFDLEFNQQIDLNEVKQQLGEGLQQIEDGALVIDVDSIQITEKPSSTTPEPTSTTGHITTETMPITGHTTPAATPTAASCPPDHSLCWDRSTCVLTDVLCDGVSDCPDASDENSSRCATTCDGQFVLGGPNGTFRSSETETYRNNSNCRWIIRMDGGLSVQVNFHHFETEEYSDVLKLYEGVGPHKQLAAELSGPSPPGTVLLLNNQVTVEFTSDGVNDLSGFRASYVAVNTSSLSNQEKLSCSFDQGFCFWRQLQDSFDTWIRTNVPTFPPLTGPNFDHTFGNSSGFYIVTSLSPGQWLKSFVINSLPLAPSSHPTCLSFWYHMFGEDVYRLRVLLRPSQPELTEVVLFHKEGNFGDNWNYAQITLNLSTESTVVFEAQKEGGNQNDIALDDISLRSEGCGPAPPEPTNVPLPTTAAPIPPDCGGPFDLWEPNSTFTSPNYPQSYGDGAECLWTLHAEKGQNIQLHFLDFDVEATYDVVEVRDGAGLNSTLLAVLSGSDGPTRDLYSTDNQMTVWFYTDSGGFGRGFRANFTSGVNLGSQAPCTNGQFQCQTGDCIHGDRQCDGVADCPDGYDEADCVALQVNGSHRLHFLLLRSLLTVCADTWDSELSDFTCQYLGYRSGEESLQSVLPQDAAFAVVTVSSNGTLETQVRETCSSGEVISLNCSNQPCGQRQVYNHGDQSENSKENNGVPRVVGGVNAEKGAWPWMVSLHWRGRHGCGASLIGRDWLLTAAHCVYGKNTHLQYWSAVLGLHAQSSMNSQEVQIRQVDRIIINKNYNRRTKEADIAMMHLQQPVNFTEWVLPVCLASEGQHFPAGRRCFIAGWGRDAEGGSLPDILQEAEVPLVDQDECQRLLPEYTFTSSMLCAGYPEGGVDSCQGDSGGPLMCLEDARWTLIGVTSFGVGCGRPERPGAYARVSAFASWIAETRRSSFSDLD
# modifications: Oryzias latipes
# B4: K63R: Medaka EP-1 protease mutant, substitution K63R (protein)
# chain: CGQRQVYNSKENNGVPRVVGGVNAEKGAWPWMVSLHWRGRHGCGASLIGRDWLLTAAHCVYGRNTHLQYWSAVLGLHAQSSMNSQEVQIRQVDRIIINKNYNRRTKEADIAMMHLQQPVNFTEWVLPVCLASEDQHFPAGRRCFIAGWGRDAEGGSLPDILQEAEVPLVDQDECQRLLPEYTFTSSMLCAGYPEGGVDSCQGDSGGPLMCLEDARWTLIGVTSFGVGCGRPERPGAYARVSAFTSWIAETRRSSFSDLD
# B5: F144S: Medaka EP-1 protease mutant, substitution F144S (protein)
# chain: B4 chain with R63K, F144S
# B6: P193E: Medaka EP-1 protease mutant, substitution P193E (protein)
# chain: B4 chain with R63K, P193E
# B7: T105E: Medaka EP-1 protease mutant, substitution T105E (protein)
# chain: B4 chain with R63K, T105E
# B8: E173K: Medaka EP-1 protease mutant, substitution E173K (protein)
# chain: B4 chain with R63K, E173K
# B9: F144A: Medaka EP-1 protease mutant, substitution F144A (protein)
# chain: B4 chain with R63K, F144A
# Legend:
# Type in all cases: biochemical
# Pro-Phe-Arg-MCA = assay: Activity assay of EP proteases and EP-treated hK8 samples with Pro-Phe-Arg-MCA (FIG. 4B middle)
# Experimental: (A) A recombinant fusion protein of Medaka gelatinase A (5 μg) was separately incubated with active EP proteases (100 ng) at 37° C. for 1 h, and analyzed by SDS-PAGE. (B) A recombinant fusion protein of human kallikrein 8 (hK8) (5 μg) was incubated with active EP proteases (100 ng) at 37° C. for 2 h. After incubation, the samples were analyzed by SDS-PAGE (upper panel), or assayed for activity with Pro-Phe-Arg-MCA (middle panel), or Boc-Glu(OBzl)-Ala-Arg-MCA (lower panel). […] The samples were then analyzed by SDS-PAGE/Western blotting using anti-human tPA antibody (upper panel) or anti-His probe antibody (lower panel). The position of sctPA (58- and 61-kDa) detected with the antibodies is shown.
# (§1) EP activity was routinely determined using the specific substrate Gly-Asp-Asp-Asp-Asp-Lys-β-naphthylamide (GD4K-βNA) (SEQ ID NO: 6) (Sigma) according to the method of Mikhailova and Rumsh (Mikhailova et al., FEBS Lett., 442:226-230 (1999)). Enzyme activity for various 4-methylcoumaryl-7-amide (MCA)-containing peptide substrates was determined by the method of Barrett (Barrett et al., J., Biochem. J., 187:909-912 (1980)). For kinetic studies, initial velocities, extrapolated from the plot of product versus time, were transformed into double-reciprocal plots (Lineweaver et al., J. Am. Chem. Soc., 56:658-663 (1934)). The maximum velocities (Vmax) and Km and kcat values were obtained from the intercepts of these plots. For all experiments, the results of at least three separate determinations are shown.
# Next, a 35.5-kDa protein of human kallikrein 8 (hK8) in the same E. coli expression system was synthesized. Digestion with Medaka wild-type and mutant EP proteases generated 31.5-kDa active hK8 by cleaving the D4K sequence (SEQ ID NO: 1) (FIG. 4B, Top). […] The EP protease-treated samples were directly assayed for hK8 activity using Pro-Phe-Arg-MCA, a good synthetic peptide substrate of hK8 (Rajapakse et al., FEBS Lett., 579:6879-6884 (2005)). […] The substrate Boc-Glu(OBzl)-Ala-Arg-MCA, which is slightly cleaved by active hK8, was rapidly hydrolyzed with the samples treated with mammalian, but not Medaka, EP proteases (FIG. 4B, Bottom).
# GD4K-βNA = assay: EP activity and kinetic study with specific substrate GD4K-βNA; conditions: for Km / kcat: substrate GD4K-βna
# Experimental: (A) Active recombinant EP proteases were assayed using a GD4K-βNA (SEQ ID NO: 6) substrate as a substrate. Bovine (Nvg), bovine EP protease available from Novagen; Bovine (Neb), bovine EP protease available from NEB. (B) Active recombinant EP proteases were assayed using various synthetic peptide substrates. (C) Active EP proteases were analyzed by gelatin zymography. (D) Fibronectin (4 μg) was incubated with active EPs (100 ng) at 37° C. for 12 h. (E) Laminin ((10 μg) was incubated with active recombinant EPs (100 ng) at 37° C. for 12 h. (F) Two μg of the control protein containing the D4K site (SEQ ID NO: 1) was incubated with active recombinant EPs (100 ng) at 37° C. for 1 h.
# (A) The purity of purified recombinant Medaka EP-1 and EP-2 protease was assessed by SDS-PAGE. Lane 1, Medaka EP fusion protein; lane 2, Medaka EP protease treated with immobilized trypsin; lane 3, Medaka EP protease purified using a resource Q column. (B) The enzyme activities of EP proteases were determined at various pHs using GD4K-βNA (SEQ ID NO: 6) as a substrate. (C) Recombinant Medaka trypsinogen was incubated at 37° C. with EPs for 15, 30 and 45 min. After incubation, samples were analyzed by SDS-PAGE and visualized by CBB staining (upper panel). The relative amount of the active form of Medaka trypsin at each time point were calculated based on the results shown in the upper panel (lower panel). The results are presented as the means (±SD) of three separate experiments.
# as §1
# [1] = system: recombinant Medaka trypsinogen; assay: Activation of recombinant Medaka trypsinogen, SDS-PAGE; conditions: 37° C., 15, 30 and 45 min
# [2] = system: GD4K-βNA and the three MCA-containing substrates; assay: Specific activities of wild-type and mutant EP protease using synthetic peptide substrates (FIG. 3A)
# Experimental: (A) The specific activities of wild-type (EP-1) and mutant EP protease were determined using synthetic peptide substrates. (B) High-molecular-weight (HMW) kininogen (5 μg) was incubated with active EP proteases (100 ng) at 37° C. for 2 h and analyzed by SDS-PAGE. (C) Fibrinogen (10 μg) was incubated with active EP proteases (100 ng) at 37° C. for 12 h and analyzed by SDS-PAGE.
# as §1
Molecule,enzyme activity of the EP protease itself with Pro-Phe-Arg-MCA (Pro-Phe-Arg-MCA),Km (GD4K-βNA) [µM],kcat (GD4K-βNA) [s⁻¹],enzyme activity for synthetic peptide substrates compared with the wild-type enzyme [2],also measured
B1,considerable enzyme activities were detected,500,25,,
B2,,800,12.8,,Pro-Phe-Arg-MCA-hydrolyzing activity of hK8 fusion protein samples treated with EP protease (Pro-Phe-Arg-MCA): very low activity
B3,,,,,"pH of maximal activity for GD4K-βNA (GD4K-βNA; serine protease domain, FIG. 8B): 8"
B4,"none of the Medaka EP proteases (wild-type EP-1, K63R, E173A, or E193A) showed any significant enzyme activity",200,3.5,reduced enzyme activity for synthetic peptide substrates,conversion of recombinant Medaka trypsinogen to active trypsin [1]: converted to trypsin as fast as the wild type enzyme
B5,,,,reduced enzyme activity for synthetic peptide substrates,
B6,"none of the Medaka EP proteases (wild-type EP-1, K63R, E173A, or E193A) showed any significant enzyme activity",400,4.83,reduced enzyme activity for synthetic peptide substrates,
B7,,400,4.33,reduced enzyme activity for synthetic peptide substrates,
B8,,,,reduced enzyme activity for synthetic peptide substrates,
B9,,,,at an elevated rate when compared with the wild-type enzyme,
